Results on 63 variants are retold here after the MegaScale stability set (Tsuboyama et al. 2023).

Sequences and labels used below:
B1: EHEE_rd2_0191 (parent)
chain: TTEYTFTDDEEARRAIEELKKRGLTFRYEKHGTTWRVRVD

In the data set the parent is B1. Put plainly: folding stability dG (cDNA display proteolysis); higher = more stable. The conditions noted are these: PBS, room temperature.
Turning to TTEYTFTDDEEARRAIEELTKRGLTFRYEKHGTTWRVRVD, the “folding stability dG” value is 2.12 kcal/mol. On to TTEYTFTDDEEARRAIEELHKRGLTFRYEKHGTTWRVRVD, for which the “folding stability dG” value is 1.71 kcal/mol. For TTEYTFTDDEEARRAIEELNKRGLTFRYEKHGTTWRVRVD the value was 1.54 kcal/mol; for TTEYTFTDDEEARRAIEELWKRGLTFRYEKHGTTWRVRVD, 1.75 kcal/mol. Regarding TTEYTFTDDEEARRAIEELLKRGLTFRYEKHGTTWRVRVD, the “folding stability dG” value amounted to 2.15 kcal/mol. Under TTEYTFTDDEEARRAIEELQKRGLTFRYEKHGTTWRVRVD stands 2 kcal/mol; under TTEYTFTDDEEARRAIEELKIRGLTFRYEKHGTTWRVRVD, 1.79 kcal/mol; under TTEYTFTDDEEARRAIEELKTRGLTFRYEKHGTTWRVRVD, 1.82 kcal/mol. Under TTEYTFTDDEEARRAIEELKARGLTFRYEKHGTTWRVRVD stands 2.12 kcal/mol. For TTEYTFTDDEEARRAIEELKVRGLTFRYEKHGTTWRVRVD the value was 1.66 kcal/mol. As for TTEYTFTDDEEARRAIEELKDRGLTFRYEKHGTTWRVRVD, the “folding stability dG” value was determined as 1.32 kcal/mol. For TTEYTFTDDEEARRAIEELKFRGLTFRYEKHGTTWRVRVD the value was 1.63 kcal/mol; for TTEYTFTDDEEARRAIEELKERGLTFRYEKHGTTWRVRVD, 1.71 kcal/mol. TTEYTFTDDEEARRAIEELKCRGLTFRYEKHGTTWRVRVD: the “folding stability dG” value is 2.13 kcal/mol.

In the case of TTEYTFTDDEEARRAIEELKQRGLTFRYEKHGTTWRVRVD, the “folding stability dG” value was 1.81 kcal/mol. Regarding TTEYTFTDDEEARRAIEELKHRGLTFRYEKHGTTWRVRVD, the “folding stability dG” value was 1.58 kcal/mol. Under TTEYTFTDDEEARRAIEELKYRGLTFRYEKHGTTWRVRVD stands 1.49 kcal/mol; under TTEYTFTDDEEARRAIEELKGRGLTFRYEKHGTTWRVRVD, 1.45 kcal/mol. Under TTEYTFTDDEEARRAIEELKWRGLTFRYEKHGTTWRVRVD stands 1.37 kcal/mol. Turning to TTEYTFTDDEEARRAIEELKMRGLTFRYEKHGTTWRVRVD, the “folding stability dG” value amounted to 1.9 kcal/mol. Under TTEYTFTDDEEARRAIEELKSRGLTFRYEKHGTTWRVRVD stands 1.94 kcal/mol; under TTEYTFTDDEEARRAIEELKNRGLTFRYEKHGTTWRVRVD, 1.78 kcal/mol. Under TTEYTFTDDEEARRAIEELKRRGLTFRYEKHGTTWRVRVD stands 2.35 kcal/mol; under TTEYTFTDDEEARRAIEELKLRGLTFRYEKHGTTWRVRVD, 1.94 kcal/mol; under TTEYTFTDDEEARRAIEELKKRGLAFRYEKHGTTWRVRVD, 1.95 kcal/mol. Consider TTEYTFTDDEEARRAIEELKKRGLDFRYEKHGTTWRVRVD, for which the “folding stability dG” value came out at 1.46 kcal/mol.

For the variant TTEYTFTDDEEARRAIEELKKRGGTFRYEKHGTTWRVRVD, the “folding stability dG” value stood at 0.321 kcal/mol. TTEYTFTDDEEARRAIEELKKRGTTFRYEKHGTTWRVRVD: the “folding stability dG” value turned out to be 1.12 kcal/mol.

For TTEYTFTDDEEARRAIEELKKRGRTFRYEKHGTTWRVRVD, the “folding stability dG” value worked out at 1.42 kcal/mol. For TTEYTFTDDEEARRAIEELKKRGQTFRYEKHGTTWRVRVD the value was 1.27 kcal/mol; for TTEYTFTDDEEARRAIEELKKRGDTFRYEKHGTTWRVRVD, 0.718 kcal/mol; for TTEYTFTDDEEARRAIEELKKRGMTFRYEKHGTTWRVRVD, 1.91 kcal/mol.

Turning to TTEYTFTDDEEARRAIEELKKRGSTFRYEKHGTTWRVRVD, the “folding stability dG” value was determined as 1.18 kcal/mol. Under TTEYTFTDDEEARRAIEELKKRGWTFRYEKHGTTWRVRVD stands 1.65 kcal/mol; under TTEYTFTDDEEARRAIEELKKRGVTFRYEKHGTTWRVRVD, 2.14 kcal/mol. For TTEYTFTDDEEARRAIEELKKRGFTFRYEKHGTTWRVRVD the value was 2.08 kcal/mol. For TTEYTFTDDEEARRAIEELKKRGETFRYEKHGTTWRVRVD the value was 1.1 kcal/mol; for TTEYTFTDDEEARRAIEELKKRGNTFRYEKHGTTWRVRVD, 0.838 kcal/mol; for TTEYTFTDDEEARRAIEELKKRGITFRYEKHGTTWRVRVD, 2.16 kcal/mol. With TTEYTFTDDEEARRAIEELKKRGKTFRYEKHGTTWRVRVD, the “folding stability dG” value is 1.55 kcal/mol. Under TTEYTFTDDEEARRAIEELKKRGYTFRYEKHGTTWRVRVD stands 2.15 kcal/mol; under TTEYTFTDDEEARRAIEELKKRGHTFRYEKHGTTWRVRVD, 1.46 kcal/mol. TTEYTFTDDEEARRAIEELKKRGATFRYEKHGTTWRVRVD: the “folding stability dG” value came to 2 kcal/mol.

TTEYTFTDDEEARRAIEEYKKRGLTFRYEKHGTTWRVRVD: the “folding stability dG” value stood at 1.58 kcal/mol.

Turning to TTEYTFTDDEEARRAIEEFKKRGLTFRYEKHGTTWRVRVD, the “folding stability dG” value stood at 2.64 kcal/mol.

On to TTEYTFTDDEEARRAIEEAKKRGLTFRYEKHGTTWRVRVD, for which the “folding stability dG” value is 0.832 kcal/mol.

For the variant TTEYTFTDDEEARRAIEEMKKRGLTFRYEKHGTTWRVRVD, the “folding stability dG” value came out at 1.73 kcal/mol.

For the variant TTEYTFTDDEEARRAIEEVKKRGLTFRYEKHGTTWRVRVD, the “folding stability dG” value is 0.238 kcal/mol. Consider TTEYTFTDDEEARRAIEEIKKRGLTFRYEKHGTTWRVRVD, for which the “folding stability dG” value is 1.55 kcal/mol. Regarding TTEYTFTDDEEARRAIEEWKKRGLTFRYEKHGTTWRVRVD, the “folding stability dG” value stood at 1.94 kcal/mol. For TTEYTFTDDEEARRAIKELKKRGLTFRYEKHGTTWRVRVD, the “folding stability dG” value turned out to be 2 kcal/mol. For TTEYTFTDDEEARRAIIELKKRGLTFRYEKHGTTWRVRVD the value was 2.01 kcal/mol. Regarding TTEYTFTDDEEARRAIQELKKRGLTFRYEKHGTTWRVRVD, the “folding stability dG” value came to 2.04 kcal/mol.

Take TTEYTFTDDEEARRAIYELKKRGLTFRYEKHGTTWRVRVD: the “folding stability dG” value was 2.02 kcal/mol. Under TTEYTFTDDEEARRAIWELKKRGLTFRYEKHGTTWRVRVD stands 2.07 kcal/mol; under TTEYTFTDDEEARRAISELKKRGLTFRYEKHGTTWRVRVD, 1.97 kcal/mol. For TTEYTFTDDEEARRAIMELKKRGLTFRYEKHGTTWRVRVD the value was 2.1 kcal/mol. Turning to TTEYTFTDDEEARRAITELKKRGLTFRYEKHGTTWRVRVD, the “folding stability dG” value amounted to 1.89 kcal/mol. For TTEYTFTDDEEARRAILELKKRGLTFRYEKHGTTWRVRVD the value was 2.11 kcal/mol. Under TTEYTFTDDEEARRAIRELKKRGLTFRYEKHGTTWRVRVD stands 2.23 kcal/mol; under TTEYTFTDDEEARRAINELKKRGLTFRYEKHGTTWRVRVD, 2.02 kcal/mol. For TTEYTFTDDEEARRAIHELKKRGLTFRYEKHGTTWRVRVD, the “folding stability dG” value came out at 1.88 kcal/mol. For TTEYTFTDDEEARRAIVELKKRGLTFRYEKHGTTWRVRVD the value was 1.83 kcal/mol.
